Assay results published in patent publication US6018029.

Target: IL-1 receptor on the THP-1 human monocyte cell line (human) (UniProt P14778)

IL-1B (ligand)
IL-6 message level (IL-6 mRNA, Northern blot, arbitrary units) (arbitrary units): 12
